Measurements published in patent US20140072613A1, “Compositions and Methods for Treating Cutaneous Scarring” (priority 2012, published 2014).

Legend:
Assay in all cases: cell-based or functional assay
[1] = biological target: CDK7/cyclinH/MAT1(h) (human) (UniProt P50613)
[2] = biological target: T1, DCAMKL2(h) (human) (UniProt Q8N568)
T1 sequence (looked up): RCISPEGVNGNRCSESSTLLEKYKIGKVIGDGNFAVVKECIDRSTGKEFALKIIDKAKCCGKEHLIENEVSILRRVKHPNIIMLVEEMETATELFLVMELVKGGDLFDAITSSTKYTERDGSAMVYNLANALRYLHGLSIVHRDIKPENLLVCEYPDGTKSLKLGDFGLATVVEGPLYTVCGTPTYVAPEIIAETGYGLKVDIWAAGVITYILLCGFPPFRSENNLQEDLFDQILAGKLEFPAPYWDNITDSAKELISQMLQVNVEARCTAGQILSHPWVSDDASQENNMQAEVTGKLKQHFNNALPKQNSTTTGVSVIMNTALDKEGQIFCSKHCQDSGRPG

[3] = biological target: EGFR(T790M,L858R)(h) (human) (UniProt P00533)
[4] = biological target: LOK(h) (human) (UniProt O94804)
Chain of LOK(h) (human) (O94804 1-348 limits assumed): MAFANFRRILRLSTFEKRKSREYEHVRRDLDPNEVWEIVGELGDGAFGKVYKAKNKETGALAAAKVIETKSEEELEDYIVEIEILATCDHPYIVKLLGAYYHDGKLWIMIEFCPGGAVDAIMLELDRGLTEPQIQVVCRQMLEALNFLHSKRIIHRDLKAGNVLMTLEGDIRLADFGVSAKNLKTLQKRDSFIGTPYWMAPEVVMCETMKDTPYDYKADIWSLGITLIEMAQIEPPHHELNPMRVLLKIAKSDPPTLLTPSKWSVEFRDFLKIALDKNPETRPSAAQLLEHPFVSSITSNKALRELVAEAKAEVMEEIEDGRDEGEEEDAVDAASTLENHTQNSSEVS

[5] = biological target: MAPKAP-K2(h) (human) (UniProt P49137)
Chain of MAPKAP-K2(h) (human) (P49137 46-400 limits assumed): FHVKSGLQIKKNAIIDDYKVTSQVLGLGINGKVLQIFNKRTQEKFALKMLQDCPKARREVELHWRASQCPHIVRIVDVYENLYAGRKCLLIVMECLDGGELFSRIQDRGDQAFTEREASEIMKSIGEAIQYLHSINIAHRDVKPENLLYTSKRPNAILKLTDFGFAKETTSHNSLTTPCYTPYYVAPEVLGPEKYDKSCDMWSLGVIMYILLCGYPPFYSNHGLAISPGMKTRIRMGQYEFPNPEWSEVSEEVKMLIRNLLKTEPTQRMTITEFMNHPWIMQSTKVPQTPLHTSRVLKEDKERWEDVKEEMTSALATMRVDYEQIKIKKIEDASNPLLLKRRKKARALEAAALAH

[6] = biological target: MEK1(h) (human) (UniProt Q02750)
[7] = biological target: T2, Mer(h) (human) (UniProt Q12866)
T2 sequence (looked up): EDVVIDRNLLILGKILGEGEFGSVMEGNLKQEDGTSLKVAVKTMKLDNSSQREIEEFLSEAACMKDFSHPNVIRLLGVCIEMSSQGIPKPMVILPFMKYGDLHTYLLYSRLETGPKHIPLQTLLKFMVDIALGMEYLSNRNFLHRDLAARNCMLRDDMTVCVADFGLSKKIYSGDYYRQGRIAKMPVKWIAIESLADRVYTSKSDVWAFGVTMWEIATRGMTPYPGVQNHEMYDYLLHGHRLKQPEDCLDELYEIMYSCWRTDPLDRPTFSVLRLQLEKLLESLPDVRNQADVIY

[8] = biological target: Met(h) (human) (UniProt P08581)
Chain of Met(h) (human) (P08581 956-1390 limits assumed): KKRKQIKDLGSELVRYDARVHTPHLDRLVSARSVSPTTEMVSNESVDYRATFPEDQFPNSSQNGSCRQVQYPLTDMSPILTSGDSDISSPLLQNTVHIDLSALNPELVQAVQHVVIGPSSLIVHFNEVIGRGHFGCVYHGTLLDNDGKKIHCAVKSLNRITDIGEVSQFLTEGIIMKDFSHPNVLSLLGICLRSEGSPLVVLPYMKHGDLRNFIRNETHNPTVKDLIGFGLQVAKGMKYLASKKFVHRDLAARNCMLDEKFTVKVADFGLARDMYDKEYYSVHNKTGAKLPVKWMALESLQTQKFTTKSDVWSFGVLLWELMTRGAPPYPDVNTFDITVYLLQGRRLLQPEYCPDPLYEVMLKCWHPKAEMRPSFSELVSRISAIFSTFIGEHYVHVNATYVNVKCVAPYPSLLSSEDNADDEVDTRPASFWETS

[9] = biological target: PASK(h) (human) (UniProt Q96RG2)
Chain of PASK(h) (human) (Q96RG2 879-1323 limits assumed): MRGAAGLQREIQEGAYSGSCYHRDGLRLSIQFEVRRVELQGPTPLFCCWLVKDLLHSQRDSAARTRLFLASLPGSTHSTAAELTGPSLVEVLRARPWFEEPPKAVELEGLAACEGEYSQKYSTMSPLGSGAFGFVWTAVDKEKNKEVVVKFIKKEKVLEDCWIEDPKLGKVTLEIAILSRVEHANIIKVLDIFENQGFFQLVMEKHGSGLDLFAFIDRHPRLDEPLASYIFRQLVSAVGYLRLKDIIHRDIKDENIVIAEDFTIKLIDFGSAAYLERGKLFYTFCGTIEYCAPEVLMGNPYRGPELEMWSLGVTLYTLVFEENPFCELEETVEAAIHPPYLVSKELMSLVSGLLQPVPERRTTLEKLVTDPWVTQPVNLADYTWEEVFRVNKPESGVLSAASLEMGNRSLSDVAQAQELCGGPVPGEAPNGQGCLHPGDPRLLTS

[10] = biological target: T3, PDK1(h) (human) (UniProt O15530)
T3 sequence (looked up): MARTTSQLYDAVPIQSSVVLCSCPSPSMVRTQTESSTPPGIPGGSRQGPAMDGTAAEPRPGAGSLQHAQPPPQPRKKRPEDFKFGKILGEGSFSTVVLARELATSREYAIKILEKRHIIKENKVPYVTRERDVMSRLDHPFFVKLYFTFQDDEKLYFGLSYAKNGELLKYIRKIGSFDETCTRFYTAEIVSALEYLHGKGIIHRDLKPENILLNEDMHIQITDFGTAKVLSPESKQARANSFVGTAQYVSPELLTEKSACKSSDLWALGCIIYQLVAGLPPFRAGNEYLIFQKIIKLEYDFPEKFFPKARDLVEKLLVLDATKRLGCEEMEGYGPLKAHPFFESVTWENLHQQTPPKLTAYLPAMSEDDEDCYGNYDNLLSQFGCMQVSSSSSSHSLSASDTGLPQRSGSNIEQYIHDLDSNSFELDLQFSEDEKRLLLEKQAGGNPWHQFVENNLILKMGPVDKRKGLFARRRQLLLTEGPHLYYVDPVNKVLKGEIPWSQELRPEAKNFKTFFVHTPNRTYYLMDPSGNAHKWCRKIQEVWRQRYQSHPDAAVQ

[11] = biological target: PKCα(h) (human) (UniProt P17252)
[12] = biological target: ROCK-II(h) (human) (UniProt O75116)
Chain of ROCK-II(h) (human) (O75116 11-552 limits assumed): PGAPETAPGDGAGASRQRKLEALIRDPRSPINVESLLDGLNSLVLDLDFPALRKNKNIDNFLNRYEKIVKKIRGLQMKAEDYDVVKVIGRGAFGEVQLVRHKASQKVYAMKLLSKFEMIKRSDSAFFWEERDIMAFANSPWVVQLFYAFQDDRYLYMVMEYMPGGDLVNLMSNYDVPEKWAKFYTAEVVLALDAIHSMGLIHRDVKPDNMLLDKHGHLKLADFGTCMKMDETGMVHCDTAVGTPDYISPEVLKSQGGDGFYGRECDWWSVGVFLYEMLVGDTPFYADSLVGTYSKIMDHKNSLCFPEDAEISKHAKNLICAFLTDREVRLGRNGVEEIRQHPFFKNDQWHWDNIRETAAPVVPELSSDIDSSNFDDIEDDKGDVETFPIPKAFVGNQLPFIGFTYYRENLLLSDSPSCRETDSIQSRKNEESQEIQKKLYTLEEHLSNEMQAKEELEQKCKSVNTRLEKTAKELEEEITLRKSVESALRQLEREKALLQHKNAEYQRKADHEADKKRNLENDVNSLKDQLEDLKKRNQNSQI

[13] = biological target: T4, Ret(V804M)(h) (human) (UniProt P07949)
T4 sequence (looked up): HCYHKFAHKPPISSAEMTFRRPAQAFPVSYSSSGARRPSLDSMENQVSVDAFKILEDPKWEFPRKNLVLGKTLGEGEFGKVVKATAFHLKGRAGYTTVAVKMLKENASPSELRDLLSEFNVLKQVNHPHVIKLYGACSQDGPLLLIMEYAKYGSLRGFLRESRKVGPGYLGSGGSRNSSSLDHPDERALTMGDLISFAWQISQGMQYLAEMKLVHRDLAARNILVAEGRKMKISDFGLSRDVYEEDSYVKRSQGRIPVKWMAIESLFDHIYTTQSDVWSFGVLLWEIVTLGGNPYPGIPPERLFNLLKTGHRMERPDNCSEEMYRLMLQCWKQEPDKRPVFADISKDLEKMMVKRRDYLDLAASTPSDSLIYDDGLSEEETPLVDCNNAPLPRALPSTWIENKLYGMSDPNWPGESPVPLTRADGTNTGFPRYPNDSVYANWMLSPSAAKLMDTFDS

[14] = biological target: T5, TSSK1(h) (human) (UniProt Q9BXA7)
T5 sequence (looked up): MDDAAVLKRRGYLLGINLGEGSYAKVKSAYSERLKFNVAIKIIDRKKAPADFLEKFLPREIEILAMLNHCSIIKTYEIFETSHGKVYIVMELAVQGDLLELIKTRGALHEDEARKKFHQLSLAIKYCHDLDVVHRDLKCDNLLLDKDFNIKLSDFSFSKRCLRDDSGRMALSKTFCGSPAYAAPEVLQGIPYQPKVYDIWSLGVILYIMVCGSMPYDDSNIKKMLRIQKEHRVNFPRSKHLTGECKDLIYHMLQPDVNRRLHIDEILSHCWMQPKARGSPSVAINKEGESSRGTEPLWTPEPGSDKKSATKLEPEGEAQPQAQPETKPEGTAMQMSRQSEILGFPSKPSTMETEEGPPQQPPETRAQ

[15] = biological target: ZAP-70(h) (human) (UniProt P43403)
Chain of ZAP-70(h) (human) (P43403 whole entry): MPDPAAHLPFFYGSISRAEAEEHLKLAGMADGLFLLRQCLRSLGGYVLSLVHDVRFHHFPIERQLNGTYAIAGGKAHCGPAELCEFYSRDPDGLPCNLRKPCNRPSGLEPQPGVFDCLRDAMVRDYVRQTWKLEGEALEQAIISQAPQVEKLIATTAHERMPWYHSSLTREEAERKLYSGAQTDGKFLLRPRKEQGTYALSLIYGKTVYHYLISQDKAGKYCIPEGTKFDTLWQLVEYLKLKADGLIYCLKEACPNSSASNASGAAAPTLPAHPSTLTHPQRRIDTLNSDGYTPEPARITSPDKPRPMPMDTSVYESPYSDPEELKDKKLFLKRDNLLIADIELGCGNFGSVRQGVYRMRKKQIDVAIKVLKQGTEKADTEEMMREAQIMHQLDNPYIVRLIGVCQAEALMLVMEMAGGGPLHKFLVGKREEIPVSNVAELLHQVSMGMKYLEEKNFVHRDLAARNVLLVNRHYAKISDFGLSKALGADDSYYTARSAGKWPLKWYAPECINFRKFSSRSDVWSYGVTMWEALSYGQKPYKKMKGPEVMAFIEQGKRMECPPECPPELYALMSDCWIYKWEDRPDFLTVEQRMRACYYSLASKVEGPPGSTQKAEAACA

Chain of CDK7/cyclinH/MAT1(h) (human) (P50613 whole entry, chain 1 of 3): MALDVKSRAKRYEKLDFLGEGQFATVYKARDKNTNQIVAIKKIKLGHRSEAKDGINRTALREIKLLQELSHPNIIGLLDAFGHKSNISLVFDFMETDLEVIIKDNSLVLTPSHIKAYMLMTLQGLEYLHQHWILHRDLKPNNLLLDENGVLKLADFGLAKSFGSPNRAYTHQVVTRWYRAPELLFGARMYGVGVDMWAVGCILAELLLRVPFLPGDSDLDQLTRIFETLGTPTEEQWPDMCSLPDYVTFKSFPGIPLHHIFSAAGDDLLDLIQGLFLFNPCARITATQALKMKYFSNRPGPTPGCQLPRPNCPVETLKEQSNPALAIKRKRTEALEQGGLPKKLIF
Chain of CDK7/cyclinH/MAT1(h) (human) (P51946 whole entry, chain 2 of 3, further chain): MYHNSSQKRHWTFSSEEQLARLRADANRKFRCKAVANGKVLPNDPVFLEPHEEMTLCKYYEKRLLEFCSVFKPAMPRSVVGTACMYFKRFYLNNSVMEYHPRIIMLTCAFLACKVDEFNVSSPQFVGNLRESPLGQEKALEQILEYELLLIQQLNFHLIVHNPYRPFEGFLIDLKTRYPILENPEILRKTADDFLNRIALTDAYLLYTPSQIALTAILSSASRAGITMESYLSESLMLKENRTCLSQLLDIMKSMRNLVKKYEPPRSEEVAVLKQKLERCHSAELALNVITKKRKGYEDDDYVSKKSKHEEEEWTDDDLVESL
Chain of CDK7/cyclinH/MAT1(h) (human) (P51948 whole entry, chain 3 of 3, further chain): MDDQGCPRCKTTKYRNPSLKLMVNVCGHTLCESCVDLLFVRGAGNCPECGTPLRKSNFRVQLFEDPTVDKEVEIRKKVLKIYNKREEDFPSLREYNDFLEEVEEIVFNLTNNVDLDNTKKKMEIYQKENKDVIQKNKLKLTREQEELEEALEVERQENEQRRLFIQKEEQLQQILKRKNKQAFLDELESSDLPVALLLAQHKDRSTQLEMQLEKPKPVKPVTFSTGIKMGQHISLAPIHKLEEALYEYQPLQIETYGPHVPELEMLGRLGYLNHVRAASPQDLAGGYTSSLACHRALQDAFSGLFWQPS

MMI-0500 (peptide)
% activity, 100 µM [1]: 15%
% activity, 100 µM [2]: 56%
% activity, 100 µM [3]: 53%
% activity, 100 µM [4]: 7%
% activity, 100 µM [5]: 9%
inhibition of kinase activity at 100 µM [5]: > 65%
% activity, 100 µM [6]: 21%
% activity, 100 µM [7]: 17%
% activity, 100 µM [8]: 27%
% activity, 100 µM [9]: 9%
% activity, 100 µM [10]: 178%
% activity, 100 µM [11]: 3%
% activity, 100 µM [12]: 2%
% activity, 100 µM [13]: 36%
% activity, 100 µM [14]: 46%
% activity, 100 µM [15]: 1%
